The values below come from patent publication US20180142030A1 (Bristol-Myers Squibb, published 2018).

One test deals with T1, FcγRIIb (human, UniProt P31994 43-217, limits assumed).
T1 construct: Construct not described; also called hCD32b/FcγRIIb
T1 sequence (looked up): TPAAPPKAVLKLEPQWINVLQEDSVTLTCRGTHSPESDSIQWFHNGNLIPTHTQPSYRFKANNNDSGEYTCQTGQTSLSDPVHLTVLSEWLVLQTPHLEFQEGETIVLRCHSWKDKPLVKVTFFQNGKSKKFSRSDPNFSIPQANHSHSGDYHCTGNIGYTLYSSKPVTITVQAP
Briefly: BLI (ForteBio Octet), %Rmax at 1 µM hCD32b/FcγRIIb. On the procedure:
(§1) See Example 8. Antibody names including “-sup” represent supernatants from antibody producing cells, whereas others are purified antibodies. Data are presented as percentages of a maximum receptor binding value for each combination of antibody and receptor, as measured in a ForteBio Octet system. See, e.g., Example 3. Each cluster of three bars represents, from left to right, binding to hCD32a/FcγRIIa-H131 (10 μM) (hatched bars), […] (10 μM) (black bars), and hCD32b/FcγRIIb (1 μM) (white bars).
(§2) Supernatants were obtained from cells expressing these antibodies and assayed for binding to hCD32/FcγRII. Selected purified antibodies without mutations at position 270 were used as controls.
Background: Biolayer interferometry detects binding as a change in optical thickness at a sensor tip.

Another test has as its target T2, FcγRIIa-R131 (human, UniProt P12318 34-218, limits assumed).
T2 construct: Construct not described
T2 sequence (looked up): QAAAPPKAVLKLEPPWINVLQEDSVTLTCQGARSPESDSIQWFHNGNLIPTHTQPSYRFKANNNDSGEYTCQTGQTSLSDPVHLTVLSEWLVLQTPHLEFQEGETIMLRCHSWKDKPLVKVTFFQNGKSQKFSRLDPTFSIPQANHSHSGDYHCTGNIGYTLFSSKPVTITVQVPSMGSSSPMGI
In words: BLI (ForteBio Octet), %Rmax at 10 µM FcγRIIa-R131 (CD32a-R131 on the sheet). How it is done:
as §1, §2

For the next test, the target named is T3, FcγRIIa-H131 (human, UniProt P12318 34-218, limits assumed).
T3 construct: Construct not described; also called hCD32a/FcγRIIa-H131
T3 sequence (looked up): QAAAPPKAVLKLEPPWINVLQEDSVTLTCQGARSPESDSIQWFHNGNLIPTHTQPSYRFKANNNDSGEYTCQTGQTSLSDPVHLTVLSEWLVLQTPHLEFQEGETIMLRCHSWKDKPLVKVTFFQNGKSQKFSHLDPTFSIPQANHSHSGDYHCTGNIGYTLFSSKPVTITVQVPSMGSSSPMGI
In words: BLI (ForteBio Octet), %Rmax at 10 µM hCD32a/FcγRIIa-H131. How it is done: as §1, §2

B1: 5F11-45 V4 D270E (antibody, human IgG1, kappa)
heavy: QVQLVQSGAEVKKPGSSVKVSCKASGYTFTDLSMHWVRQAPGQGLEWMGYITPSSGYTAYNQKFKGKTTLTADKSTSTAYMELSSLRSEDTAVYYCARLILQRGAYWGQGTLVTVSSASTKGPSVFPLAPSSKSTSGGTAALGCLVKDYFPEPVTVSWNSGALTSGVHTFPAVLQSSGLYSLSSVVTVPSSSLGTQTYICNVNHKPSNTKVDKRVEPKSCDKTHTCPPCPAPELLGGDSVFLFPPKPKDTLMISRTPEVTCVVVDVSHEEGEVKFNWYVDGVEVHNAKTKPREEQYNSTYRVVSVLTVLHQDWLNGKEYKCKVSNKALPAPIEKTISKAKGQPREPQVYTLPPSREEMTKNQVSLTCLVKGFYPSDIAVEWESNGQPENNYKTTPPVLDSDGSFFLYSKLTVDKSRWQQGNVFSCSVMHEALHNHYTQKSLSLSPG
light: DIVLTQSPDSLAVSLGERATINCRASKNVDSYGNSFMHWYQQKPGQPPKLLIYRASNLESGVPDRFSGSGSGTDFTLTISSLQAEDVAVYYCQQSNEDPLTFGQGTKLEIKRTVAAPSVFIFPPSDEQLKSGTASVVCLLNNFYPREAKVQWKVDNALQSGNSQESVTEQDSKDSTYSLSSTLTLSKADYEKHKVYACEVTHQGLSSPVTKSFNRGEC
notes: also called 5F11-45 D270E V4
Turning to B1, the binding result with FcγRIIb and with FcγRIIa-R131 was “binds” each time.

B2: 5F11-45-V9-DT-sup (antibody, human IgG1, kappa)
heavy chain: QVQLVQSGAEVKKPGSSVKVSCKASGYTFTDLSMHWVRQAPGQGLEWMGYITPSSGYTAYNQKFKGKTTLTADKSTSTAYMELSSLRSEDTAVYYCARLILQRGAYWGQGTLVTVSSASTKGPSVFPLAPSSKSTSGGTAALGCLVKDYFPEPVTVSWNSGALTSGVHTFPAVLQSSGLYSLSSVVTVPSSSLGTQTYICNVNHKPSNTKVDKRVEPKSCDKTHTCPPCPAPELLGDDSVFLFPPKPKDTLMISRTPEVTCVVVDVSHETGEVKFNWYVDGVEVHNAKTKPREEQYNSTYRVVSVLTVLHQDWLNGKEYKCKVSNKALPRPIEKTISKAKGQPREPQVYTLPPSREEMTKNQVSLTCLVKGFYPSDIAVEWESNGQPENNYKTTPPVLDSDGSFFLYSKLTVDKSRWQQGNVFSCSVMHEALHNHYTQKSLSLSPG
light chain: DIVLTQSPDSLAVSLGERATINCRASKNVDSYGNSFMHWYQQKPGQPPKLLIYRASNLESGVPDRFSGSGSGTDFTLTISSLQAEDVAVYYCQQSNEDPLTFGQGTKLEIKRTVAAPSVFIFPPSDEQLKSGTASVVCLLNNFYPREAKVQWKVDNALQSGNSQESVTEQDSKDSTYSLSSTLTLSKADYEKHKVYACEVTHQGLSSPVTKSFNRGEC
notes: Tested as supernatant of antibody-producing cells; also called 5F11-45 V9 D270T
Consider B2, for which the binding result with FcγRIIb and in the test with FcγRIIa-R131 was “binds” in each case.

B3: 12D6-24 V9 (antibody, human IgG1, kappa)
heavy: QVQLVQSGAEVKKPGASVKVSCKASGYTFTGYNMNWVRQAPGQGLEWMGNIDPYYGNTNYNQKFKGRVTMTTDTSTSTAYMELRSLRSDDTAVYYCARLGLQLYALDYWGQGTTVTVSSASTKGPSVFPLAPSSKSTSGGTAALGCLVKDYFPEPVTVSWNSGALTSGVHTFPAVLQSSGLYSLSSVVTVPSSSLGTQTYICNVNHKPSNTKVDKRVEPKSCDKTHTCPPCPAPELLGDDSVFLFPPKPKDTLMISRTPEVTCVVVDVSHEDGEVKFNWYVDGVEVHNAKTKPREEQYNSTYRVVSVLTVLHQDWLNGKEYKCKVSNKALPRPIEKTISKAKGQPREPQVYTLPPSREEMTKNQVSLTCLVKGFYPSDIAVEWESNGQPENNYKTTPPVLDSDGSFFLYSKLTVDKSRWQQGNVFSCSVMHEALHNHYTQKSLSLSPG
light: DIVMTQTPLSLPVTPGEPASISCRSSQSLVHSNANTYLHWYLQKPGQSPQLLIYKLTNRFFGVPDRFSGSGSGTDFTLKISRVEAEDVGVYYCSQSIHVPWTFGGGTKVEIKRTVAAPSVFIFPPSDEQLKSGTASVVCLLNNFYPREAKVQWKVDNALQSGNSQESVTEQDSKDSTYSLSSTLTLSKADYEKHKVYACEVTHQGLSSPVTKSFNRGEC
Regarding B3, the binding result with FcγRIIb, with FcγRIIa-H131 and with FcγRIIa-R131 was “binds” each time.

B4: 12D6-24 V9 D270E (antibody, human IgG1, kappa)
heavy: QVQLVQSGAEVKKPGASVKVSCKASGYTFTGYNMNWVRQAPGQGLEWMGNIDPYYGNTNYNQKFKGRVTMTTDTSTSTAYMELRSLRSDDTAVYYCARLGLQLYALDYWGQGTTVTVSSASTKGPSVFPLAPSSKSTSGGTAALGCLVKDYFPEPVTVSWNSGALTSGVHTFPAVLQSSGLYSLSSVVTVPSSSLGTQTYICNVNHKPSNTKVDKRVEPKSCDKTHTCPPCPAPELLGDDSVFLFPPKPKDTLMISRTPEVTCVVVDVSHEEGEVKFNWYVDGVEVHNAKTKPREEQYNSTYRVVSVLTVLHQDWLNGKEYKCKVSNKALPRPIEKTISKAKGQPREPQVYTLPPSREEMTKNQVSLTCLVKGFYPSDIAVEWESNGQPENNYKTTPPVLDSDGSFFLYSKLTVDKSRWQQGNVFSCSVMHEALHNHYTQKSLSLSPG
light: DIVMTQTPLSLPVTPGEPASISCRSSQSLVHSNANTYLHWYLQKPGQSPQLLIYKLTNRFFGVPDRFSGSGSGTDFTLKISRVEAEDVGVYYCSQSIHVPWTFGGGTKVEIKRTVAAPSVFIFPPSDEQLKSGTASVVCLLNNFYPREAKVQWKVDNALQSGNSQESVTEQDSKDSTYSLSSTLTLSKADYEKHKVYACEVTHQGLSSPVTKSFNRGEC
Turning to B4, the binding result in the test with FcγRIIb, with FcγRIIa-H131 and with FcγRIIa-R131 was “binds” throughout.

B5: 12D6-24-V9-DA-sup (antibody)
heavy: QVQLVQSGAEVKKPGASVKVSCKASGYTFTGYNMNWVRQAPGQGLEWMGNIDPYYGNTNYNQKFKGRVTMTTDTSTSTAYMELRSLRSDDTAVYYCARLGLQLYALDYWGQGTTVTVSSASTKGPSVFPLAPSSKSTSGGTAALGCLVKDYFPEPVTVSWNSGALTSGVHTFPAVLQSSGLYSLSSVVTVPSSSLGTQTYICNVNHKPSNTKVDKRVEPKSCDKTHTCPPCPAPELLGDDSVFLFPPKPKDTLMISRTPEVTCVVVDVSHEAGEVKFNWYVDGVEVHNAKTKPREEQYNSTYRVVSVLTVLHQDWLNGKEYKCKVSNKALPRPIEKTISKAKGQPREPQVYTLPPSREEMTKNQVSLTCLVKGFYPSDIAVEWESNGQPENNYKTTPPVLDSDGSFFLYSKLTVDKSRWQQGNVFSCSVMHEALHNHYTQKSLSLSPG
light: DIVMTQTPLSLPVTPGEPASISCRSSQSLVHSNANTYLHWYLQKPGQSPQLLIYKLTNRFFGVPDRFSGSGSGTDFTLKISRVEAEDVGVYYCSQSIHVPWTFGGGTKVEIKRTVAAPSVFIFPPSDEQLKSGTASVVCLLNNFYPREAKVQWKVDNALQSGNSQESVTEQDSKDSTYSLSSTLTLSKADYEKHKVYACEVTHQGLSSPVTKSFNRGEC
notes: Tested as supernatant of antibody-producing cells; also called 12D6-24 V9 D270A; copies: 2 + 2
Take B5: the binding result with FcγRIIb, in the test with FcγRIIa-H131 and with FcγRIIa-R131 was “binds” in each case.

B6: 12D6-24-V9-DT-sup (antibody)
heavy: QVQLVQSGAEVKKPGASVKVSCKASGYTFTGYNMNWVRQAPGQGLEWMGNIDPYYGNTNYNQKFKGRVTMTTDTSTSTAYMELRSLRSDDTAVYYCARLGLQLYALDYWGQGTTVTVSSASTKGPSVFPLAPSSKSTSGGTAALGCLVKDYFPEPVTVSWNSGALTSGVHTFPAVLQSSGLYSLSSVVTVPSSSLGTQTYICNVNHKPSNTKVDKRVEPKSCDKTHTCPPCPAPELLGDDSVFLFPPKPKDTLMISRTPEVTCVVVDVSHETGEVKFNWYVDGVEVHNAKTKPREEQYNSTYRVVSVLTVLHQDWLNGKEYKCKVSNKALPRPIEKTISKAKGQPREPQVYTLPPSREEMTKNQVSLTCLVKGFYPSDIAVEWESNGQPENNYKTTPPVLDSDGSFFLYSKLTVDKSRWQQGNVFSCSVMHEALHNHYTQKSLSLSPG
light: DIVMTQTPLSLPVTPGEPASISCRSSQSLVHSNANTYLHWYLQKPGQSPQLLIYKLTNRFFGVPDRFSGSGSGTDFTLKISRVEAEDVGVYYCSQSIHVPWTFGGGTKVEIKRTVAAPSVFIFPPSDEQLKSGTASVVCLLNNFYPREAKVQWKVDNALQSGNSQESVTEQDSKDSTYSLSSTLTLSKADYEKHKVYACEVTHQGLSSPVTKSFNRGEC
notes: Tested as supernatant of antibody-producing cells; also called 12D6-24 V9 D270T; copies: 2 + 2
On to B6, for which the binding result in the test with FcγRIIb and with FcγRIIa-R131 was “binds” throughout.

B7: 12D6-24 V4 D270E (antibody, human IgG1, kappa)
heavy: QVQLVQSGAEVKKPGASVKVSCKASGYTFTGYNMNWVRQAPGQGLEWMGNIDPYYGNTNYNQKFKGRVTMTTDTSTSTAYMELRSLRSDDTAVYYCARLGLQLYALDYWGQGTTVTVSSASTKGPSVFPLAPSSKSTSGGTAALGCLVKDYFPEPVTVSWNSGALTSGVHTFPAVLQSSGLYSLSSVVTVPSSSLGTQTYICNVNHKPSNTKVDKRVEPKSCDKTHTCPPCPAPELLGGDSVFLFPPKPKDTLMISRTPEVTCVVVDVSHEEGEVKFNWYVDGVEVHNAKTKPREEQYNSTYRVVSVLTVLHQDWLNGKEYKCKVSNKALPAPIEKTISKAKGQPREPQVYTLPPSREEMTKNQVSLTCLVKGFYPSDIAVEWESNGQPENNYKTTPPVLDSDGSFFLYSKLTVDKSRWQQGNVFSCSVMHEALHNHYTQKSLSLSPG
light: DIVMTQTPLSLPVTPGEPASISCRSSQSLVHSNANTYLHWYLQKPGQSPQLLIYKLTNRFFGVPDRFSGSGSGTDFTLKISRVEAEDVGVYYCSQSIHVPWTFGGGTKVEIKRTVAAPSVFIFPPSDEQLKSGTASVVCLLNNFYPREAKVQWKVDNALQSGNSQESVTEQDSKDSTYSLSSTLTLSKADYEKHKVYACEVTHQGLSSPVTKSFNRGEC
Take B7: the binding result with FcγRIIb and in the test with FcγRIIa-R131 was “binds” each time.
